{"source": "paper PMC4793595", "binders": {"B1": {"name": "MS2 coat protein, P03612 1-130 (natural protein)", "chain": "MASNFTQFVLVDNGGTGDVTVAPSNFANGVAEWISSNSRSQAYKVTCSVRQSSAQNRKYTIKVEVPKVATQTVGGVELPVAAWRSYLNMELTIPIFATNSDCELIVKAMQGLLKDGNPIPSAIAANSGIY"}}, "molecular_target": "T1, MS2 coat protein (bacteriophage MS2), P03612", "T1 chain": "B1 chain", "test": "native MS + AUC", "conditions": "remark: other sources report otherwise"}
{"binder": "B1", "values": [{"measurement": "stoichiometry N", "result": 2}]}
